{
  "source": "the nanobody polyreactivity screen of Harvey et al. (2022)",
  "data": [
    {"experiment": "yeast display, Sf9 membrane polyspecificity reagent, FACS + sequencing; frameworks hold sequencing errors", "outline": "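Nanobodies from a synthetic yeast display library (Saccharomyces cerevisiae BJ5465), induced 36–48 hours with galactose, were stained 1 hour at 4 °C with 10% biotinylated, detergent-solubilized Sf9 membrane reagent, enriched on streptavidin microbeads, then FACS-sorted. Anti-HA (expression) and streptavidin (reagent binding) fluorescence set low and high (top ~1%) gates. Polyreactivity labels come from the gate of origin. Genes were colony-PCR amplified, MiSeq 2 × 250 sequenced and filtered by CDR length.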", "values": [
      {"sequence": "QVQLVESGGGLVQAGGSLRLSCAASGFISTINVMGWYRQAPGKERELVAAITYIDGSTFYADSVKGRFTISRDNAKNTVYLQMNSLKPEDTAVYYCAADLYQWGAVFLYVRSTGLDYWGQGTQVTVSS", "polyreactivity (PSR sort gate)": "low polyreactivity"},
      {"sequence": "QVQLVESGGGLVQAGGSLRLSCAASGFISYPYAMGWSRPAPGKERELVAAISSSGGSTYYADSVKGRFTISRDNAKNTVYLQMNSLIPEDTAVYYCAARGFYRSYYWGQGTHVTVSS", "polyreactivity (PSR sort gate)": "high polyreactivity"},
      {"sequence": "QVQLVESGGGLVQAGGSLRLSCAASGFITWGNAMGWYRQAPGKERELVAAISWRDARTYYADSVKGRFTISRDNAKNTVYLQMNSLKPEDTAVYYCNAVTAYVSRNLRGYRWFDYWGQGTQVTVSS", "polyreactivity (PSR sort gate)": "low polyreactivity"},
      {"sequence": "QVQLVESGGGLVQAGGSLRLSCAASGFIVGHYAMGWYRQAPGQEREFVAAITSGGTTYYADSVKGRFTISRDNAKNTVYLQMNSLKPEDTAVYYCNADDAFRYYWLGLYDYWGQGTQVTVSS", "polyreactivity (PSR sort gate)": "low polyreactivity"},
      {"sequence": "QVQLVESGGGLVQAGGSLRLSCAASGFIVTANGMGWDRQAPGQERELVASISRRGGSTYYADSVKGRFTISRDNAKNTVYLQMNSLKPEDTAVYYCAARFYQEWGQGTQVTVSS", "polyreactivity (PSR sort gate)": "high polyreactivity"},
      {"sequence": "QVQLVESGGGLVQAGGSLRLSCAASGFIYEDYAMGWYRQAPGKERELVAAITWRGGRTYYADCVKGRYTISRDNAKNTVYLQMNSLKPEDTAVYYCRPLVYSYASRYGYWGQGTQVTVLS", "polyreactivity (PSR sort gate)": "high polyreactivity"},
      {"sequence": "QVQLVESGGGLVQAGGSLRLSCAASGFIYFDYAMGWDRQAPGKERELVAGISRSGDSTYYADSVKGRFTISRDNAKNTVYLQMNSLKPEDTGVFYCAVVTYRSKAHSSRNGKYYYWGQGTHVTVSS", "polyreactivity (PSR sort gate)": "low polyreactivity"},
      {"sequence": "QVQLVESGGGLVQAGGSLRLSCAASGFIYGWYAMGWYRQAPGKERELVAAINWSGTSTYYADSVKGRFTISRDNAKNTVYLQMNSLKPEDTAVYYCAAYFQKLPTTGYDYWGQGTQVTVSS", "polyreactivity (PSR sort gate)": "low polyreactivity"},
      {"sequence": "QVQLVESGGGLVQAGGSLRLSCAASGFIYNKYTMGWYRQAPGKERELVAAIRSSGGSTYYADSVKGRFTISRDNAKNTVYLQMNSLKPEDTAVYYCNALPYQVWKRYSWGQGTQVTVSS", "polyreactivity (PSR sort gate)": "high polyreactivity"},
      {"sequence": "QVQLVESGGGLVQAGGSLRLSCAASGFIYPYYAMGCYIQAPGKETELVAGISKSGGRTTYADSVKGRFTISRDNAKNTVYLQMNSLKPEDTAVYYCAAVYRAFPIYEDDYWGQGTQVTVSS", "polyreactivity (PSR sort gate)": "high polyreactivity"},
      {"sequence": "QVQLVESGGGLVQAGGSLRLSCAASGFIYSGYAIGCYRQAPAKERELVDTNSGSGGSTYYADSVKGRFTISRDNAKNTVYLKMNSLKTEDTAVYYCAARQRGGYGYWGQGTQVTESS", "polyreactivity (PSR sort gate)": "high polyreactivity"},
      {"sequence": "QVQLVESGGGLVQAGGSLRLSCAASGFIYSSYAMGWYRQAPGKERELVAAITRNGGSTYYADSVKGRFTISRDNAKNTVYLQMNSLKPEDTAVYYCAAPRWRGVGRFDYWGQGSQVTVSS", "polyreactivity (PSR sort gate)": "high polyreactivity"},
      {"sequence": "QVQLVESGGGLVQAGGSLRLSCAASGFIYYSYTMGWYRQAPGKERELVATISSNGGRTYYADSVKGRYTISRDNAKNTVYLQMNSLKPEDTAVYYCATDVPHGYYWSYGDYYWGQRTQVTVSS", "polyreactivity (PSR sort gate)": "low polyreactivity"},
      {"sequence": "QVQLVESGGGLVQAGGSLRLSCAASGFLFDFYPLGWYRPAPGKDRELVAAITNGGSTYYADSVKGRFTISRDNAKNTDYLQMNSLKPEDTAVYYCAAYYRSRHHGYDSCGQGTQVTVSS", "polyreactivity (PSR sort gate)": "low polyreactivity"},
      {"sequence": "QVQLVESGGGLVQAGGSLRLSCAASGFMFDDNAMGWYRQAPRKERELVAAITSGGGSTYYADSVKGRFTISRDYAKITVYLLMNSLKPEDTAVYYCAAGGYPSLLHDYDYWGQGTQVTVSS", "polyreactivity (PSR sort gate)": "low polyreactivity"},
      {"sequence": "QVQLVESGGGLVQAGGSLRLSCAASGFNFGNYAMGWYRQAPGKERELVAVISRGGSTYYADSVKGRFTISRDYAKNSVYLQMNSLKPEDTAVYFCAARAFPPYGYDYWGQGTQVTVSS", "polyreactivity (PSR sort gate)": "high polyreactivity"}
    ]}
  ]
}
